This note sets out measurements from paper PMC11004729.

The target of data set [1] is T1, FXR1 (GST-FXR1) (Homo sapiens, UniProt P51114 1-621). Kind of data set: EMSA.
The target in data set [2] is T1, FXR1 (GST-FXR1). In words: competition EMSA. (A gel shift assay detects complexes by their altered migration in electrophoresis.)
Another data set addresses HuR (GST-HuR) (UniProt Q15717 1-326). Kind of data set: EMSA.
The target in data set [3] is T1, FXR1 (GST-FXR1). Kind of data set: EMSA. This is another data set of the same source.

T1 sequence (P51114 whole entry): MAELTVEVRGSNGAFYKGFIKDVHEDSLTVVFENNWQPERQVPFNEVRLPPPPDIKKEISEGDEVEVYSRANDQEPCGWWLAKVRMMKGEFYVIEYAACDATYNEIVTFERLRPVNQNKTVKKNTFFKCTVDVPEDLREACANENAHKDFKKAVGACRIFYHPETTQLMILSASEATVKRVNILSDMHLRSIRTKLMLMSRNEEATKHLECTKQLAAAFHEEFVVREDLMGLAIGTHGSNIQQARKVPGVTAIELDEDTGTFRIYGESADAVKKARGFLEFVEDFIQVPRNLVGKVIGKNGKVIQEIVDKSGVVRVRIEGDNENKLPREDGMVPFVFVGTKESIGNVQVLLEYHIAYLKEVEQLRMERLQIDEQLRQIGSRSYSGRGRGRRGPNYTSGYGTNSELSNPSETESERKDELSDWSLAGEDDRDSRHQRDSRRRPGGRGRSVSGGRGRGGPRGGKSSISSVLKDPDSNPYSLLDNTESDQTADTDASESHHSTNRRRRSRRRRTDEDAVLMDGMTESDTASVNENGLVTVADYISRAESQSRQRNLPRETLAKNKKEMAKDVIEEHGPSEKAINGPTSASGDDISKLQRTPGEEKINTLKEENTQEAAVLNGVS
Sequence of HuR (GST-HuR) (Q15717 whole entry): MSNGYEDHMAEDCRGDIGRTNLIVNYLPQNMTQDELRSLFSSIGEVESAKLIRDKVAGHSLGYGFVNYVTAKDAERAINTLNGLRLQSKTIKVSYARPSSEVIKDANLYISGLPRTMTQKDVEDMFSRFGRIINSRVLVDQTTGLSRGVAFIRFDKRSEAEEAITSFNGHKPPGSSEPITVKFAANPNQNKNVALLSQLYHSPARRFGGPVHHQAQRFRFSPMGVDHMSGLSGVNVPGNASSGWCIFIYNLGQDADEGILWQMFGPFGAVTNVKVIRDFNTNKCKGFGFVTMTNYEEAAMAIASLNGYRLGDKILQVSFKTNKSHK

As to AUUUA (ssRNA) [AUUUA monomer], the binding result with FXR1 (GST-FXR1) [1] is listed as “no binding”.

UUAUUUAUUUUAUUUAUUUUAUUUAUU (ssRNA) [(UUAUUUAUU)3 (probe C)]: in the data set with FXR1 (GST-FXR1) [2], the binding result was “binds”. As for AUUUAAUUUAAUUUAAUUUAAUUUA (ssRNA) [(AUUUA)5 (probe B)], the binding result with FXR1 (GST-FXR1) [2] was “binds”.

Regarding CUUGUGAUUAUUUAUUAUUUAUUUAUUAUUUAUUUAUUUACAGAGAUGAA (ssRNA) [TNFα 3'UTR 50-mer (probe A)], the binding result with HuR (GST-HuR) and in the data set with FXR1 (GST-FXR1) [3] was “binds” each time.
